According to article PMC9482650, “Quantitative fragmentomics allow affinity mapping of interactomes” (Nature Communications, 2022):

T1: APBA2_1, Q99767
T1 sequence (Q99767 563-664, limits assumed, looked up): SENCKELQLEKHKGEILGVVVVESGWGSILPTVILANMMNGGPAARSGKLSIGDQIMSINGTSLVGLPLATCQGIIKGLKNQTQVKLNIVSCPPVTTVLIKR

T2: DFNB31_1, Q9P202
T2 sequence (Q9P202 135-233, limits assumed, looked up): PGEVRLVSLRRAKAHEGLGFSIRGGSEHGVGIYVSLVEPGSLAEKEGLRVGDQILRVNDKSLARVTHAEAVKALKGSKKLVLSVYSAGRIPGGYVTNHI

T3: DLG3_2, Q92796
T3 sequence (Q92796 221-321, limits assumed, looked up): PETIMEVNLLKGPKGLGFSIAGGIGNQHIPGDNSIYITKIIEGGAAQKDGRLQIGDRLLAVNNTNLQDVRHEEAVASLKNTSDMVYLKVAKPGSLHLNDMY

T4: GRIP1_3, Q9Y3R0
T4 sequence (Q9Y3R0 247-346, limits assumed, looked up): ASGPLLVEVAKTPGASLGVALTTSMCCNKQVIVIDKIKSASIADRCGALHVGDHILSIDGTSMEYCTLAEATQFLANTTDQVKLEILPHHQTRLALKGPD

T5: GRIP1_4, Q9Y3R0
T5 sequence (Q9Y3R0 467-571, limits assumed, looked up): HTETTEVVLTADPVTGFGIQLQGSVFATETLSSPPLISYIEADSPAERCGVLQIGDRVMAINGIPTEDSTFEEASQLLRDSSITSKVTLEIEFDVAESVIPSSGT

T6: GRIP1_7, Q9Y3R0
T6 sequence (Q9Y3R0 999-1096, limits assumed, looked up): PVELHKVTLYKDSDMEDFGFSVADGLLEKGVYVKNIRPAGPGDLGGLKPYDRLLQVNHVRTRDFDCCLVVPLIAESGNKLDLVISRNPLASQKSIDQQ

T7: HTRA3, P83110
T7 sequence (P83110 354-453, limits assumed, looked up): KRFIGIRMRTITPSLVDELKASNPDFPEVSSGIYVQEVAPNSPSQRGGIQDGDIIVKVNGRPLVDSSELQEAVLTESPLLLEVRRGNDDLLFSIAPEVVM

T8: LIN7B, Q9HAP6
T8 sequence (Q9HAP6 88-185, limits assumed, looked up): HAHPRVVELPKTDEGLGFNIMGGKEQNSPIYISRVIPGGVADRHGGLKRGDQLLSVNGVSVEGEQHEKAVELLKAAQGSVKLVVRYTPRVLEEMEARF

T9: MPP7, Q5T2T1
T9 sequence (Q5T2T1 134-230, limits assumed, looked up): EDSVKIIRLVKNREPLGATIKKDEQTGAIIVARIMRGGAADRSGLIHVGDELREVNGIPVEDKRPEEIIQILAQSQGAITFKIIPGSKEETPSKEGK

T10: PCLO, Q9Y6V0
T10 sequence (Q9Y6V0 4491-4600, limits assumed, looked up): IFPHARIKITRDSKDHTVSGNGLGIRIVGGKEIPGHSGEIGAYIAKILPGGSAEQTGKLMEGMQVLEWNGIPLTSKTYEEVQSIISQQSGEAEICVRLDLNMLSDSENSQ

T11: PDZD2_2, O15018
T11 sequence (O15018 329-429, limits assumed, looked up): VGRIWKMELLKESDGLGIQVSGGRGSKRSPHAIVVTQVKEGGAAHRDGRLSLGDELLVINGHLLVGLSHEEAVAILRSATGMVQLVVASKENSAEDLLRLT

T12: SNTB1, Q13884
T12 sequence (Q13884 107-205, limits assumed, looked up): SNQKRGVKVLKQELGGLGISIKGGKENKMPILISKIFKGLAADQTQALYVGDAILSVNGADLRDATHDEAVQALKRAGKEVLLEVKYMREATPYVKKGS


Key:
Test in all cases: holdup assay
Design in all cases: key: below the threshold = too weak to quantify, mostly under pKd 3.1 to 4
Conditions in all cases: plain residues with an end cap or a label only (N-terminal biotin on a linker: ttds)
AHNAK1, Q09666 = biological target: AHNAK1, Q09666
AHNAK1, Q09666, sequence (Q09666 4-100): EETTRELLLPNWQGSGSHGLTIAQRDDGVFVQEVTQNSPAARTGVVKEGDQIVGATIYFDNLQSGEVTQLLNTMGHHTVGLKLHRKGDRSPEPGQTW

APBA2_1, Q99767 = biological target: T1, APBA2_1, Q99767
DFNB31_1, Q9P202 = biological target: T2, DFNB31_1, Q9P202
DLG1_1, Q12959 = biological target: DLG1_1, Q12959
DLG1_2, Q12959 = biological target: DLG1_2, Q12959
DLG2_3, Q15700 = biological target: DLG2_3, Q15700
DLG3_2, Q92796 = biological target: T3, DLG3_2, Q92796
GORASP1, Q9BQQ3 = biological target: GORASP1, Q9BQQ3
GORASP1, Q9BQQ3, sequence (Q9BQQ3 1-208): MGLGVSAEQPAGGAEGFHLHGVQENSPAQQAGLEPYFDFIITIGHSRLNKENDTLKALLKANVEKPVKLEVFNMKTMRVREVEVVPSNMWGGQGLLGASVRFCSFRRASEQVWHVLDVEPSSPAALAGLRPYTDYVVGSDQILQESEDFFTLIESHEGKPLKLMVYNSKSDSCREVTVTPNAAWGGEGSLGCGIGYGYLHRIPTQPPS

GRIP1_3, Q9Y3R0 = biological target: T4, GRIP1_3, Q9Y3R0
GRIP1_4, Q9Y3R0 = biological target: T5, GRIP1_4, Q9Y3R0
GRIP1_7, Q9Y3R0 = biological target: T6, GRIP1_7, Q9Y3R0
HTRA3, P83110 = biological target: T7, HTRA3, P83110
Inadl_1, Q8NI35 = biological target: Inadl_1, Q8NI35
Inadl_1, Q8NI35, sequence (Q8NI35 113-229): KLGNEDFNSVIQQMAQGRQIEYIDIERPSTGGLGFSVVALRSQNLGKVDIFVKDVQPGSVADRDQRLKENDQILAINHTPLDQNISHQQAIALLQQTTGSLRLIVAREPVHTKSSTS

Inadl_10, Q8NI35 = biological target: Inadl_10, Q8NI35
Inadl_10, Q8NI35, sequence (Q8NI35 1673-1763): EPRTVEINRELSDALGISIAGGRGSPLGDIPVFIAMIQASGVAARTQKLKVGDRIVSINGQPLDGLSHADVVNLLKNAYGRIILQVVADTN

Inadl_5, Q8NI35 = biological target: Inadl_5, Q8NI35
Inadl_5, Q8NI35, sequence (Q8NI35 673-780): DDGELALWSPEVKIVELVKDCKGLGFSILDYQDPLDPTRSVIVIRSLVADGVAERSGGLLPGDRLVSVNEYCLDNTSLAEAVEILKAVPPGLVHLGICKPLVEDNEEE

Inadl_9, Q8NI35 = biological target: Inadl_9, Q8NI35
Inadl_9, Q8NI35, sequence (Q8NI35 1530-1615): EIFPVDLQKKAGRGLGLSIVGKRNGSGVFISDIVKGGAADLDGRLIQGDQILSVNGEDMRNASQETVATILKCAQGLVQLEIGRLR

LIN7B, Q9HAP6 = biological target: T8, LIN7B, Q9HAP6
LNX1_3, Q8TBB1 = biological target: LNX1_3, Q8TBB1
LNX1_3, Q8TBB1, sequence (Q8TBB1 500-596): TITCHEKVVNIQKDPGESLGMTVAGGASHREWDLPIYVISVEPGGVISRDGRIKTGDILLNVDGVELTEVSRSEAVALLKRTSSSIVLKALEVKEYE

MPP7, Q5T2T1 = biological target: T9, MPP7, Q5T2T1
NHERF4_1, Q86UT5-2 = biological target: NHERF4_1, Q86UT5-2
NHERF4_1, Q86UT5-2, sequence (Q86UT5 other isoform, or with tags, fused parts or gaps): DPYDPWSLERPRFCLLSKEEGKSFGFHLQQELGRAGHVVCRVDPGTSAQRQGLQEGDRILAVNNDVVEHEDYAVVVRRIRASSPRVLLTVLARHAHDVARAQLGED

PCLO, Q9Y6V0 = biological target: T10, PCLO, Q9Y6V0
PDZD2_2, O15018 = biological target: T11, PDZD2_2, O15018
PDZRN4_1, Q6ZMN7 = biological target: PDZRN4_1, Q6ZMN7
PDZRN4_1, Q6ZMN7, sequence (Q6ZMN7 213-318): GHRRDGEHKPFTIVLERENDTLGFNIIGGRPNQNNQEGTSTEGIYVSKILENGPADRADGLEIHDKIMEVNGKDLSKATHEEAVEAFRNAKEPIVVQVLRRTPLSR

PICK1, Q9NRD5 = biological target: PICK1, Q9NRD5
PICK1, Q9NRD5, sequence (Q9NRD5 17-115): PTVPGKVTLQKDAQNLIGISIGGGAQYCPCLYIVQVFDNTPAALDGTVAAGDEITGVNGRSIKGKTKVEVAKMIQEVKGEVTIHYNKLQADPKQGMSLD

SCRIB_3, Q14160 = biological target: SCRIB_3, Q14160
SCRIB_3, Q14160, sequence (Q14160 999-1103): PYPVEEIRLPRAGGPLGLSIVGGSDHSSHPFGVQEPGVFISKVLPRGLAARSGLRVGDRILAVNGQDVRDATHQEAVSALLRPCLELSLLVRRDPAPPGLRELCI

SNTB1, Q13884 = biological target: T12, SNTB1, Q13884

Row | pKd (AHNAK1, Q09666) | pKd (APBA2_1, Q99767) | pKd (DFNB31_1, Q9P202) | pKd (DLG1_1, Q12959) | pKd (DLG1_2, Q12959) | pKd (DLG2_3, Q15700) | pKd (DLG3_2, Q92796) | pKd (GORASP1, Q9BQQ3) | pKd (GRIP1_3, Q9Y3R0) | pKd (GRIP1_4, Q9Y3R0) | pKd (GRIP1_7, Q9Y3R0) | pKd (HTRA3, P83110) | pKd (Inadl_1, Q8NI35) | pKd (Inadl_10, Q8NI35) | pKd (Inadl_5, Q8NI35) | pKd (Inadl_9, Q8NI35) | pKd (LIN7B, Q9HAP6) | pKd (LNX1_3, Q8TBB1) | pKd (MPP7, Q5T2T1) | pKd (NHERF4_1, Q86UT5-2) | Binder | also measured
1 | below the threshold | below the threshold | 4.17 | 5 | 5.43 | 4.88 | 5.2 | below the threshold | below the threshold | below the threshold | below the threshold | 3.51 | below the threshold | below the threshold | below the threshold | below the threshold | 4.3 | 3.59 | below the threshold | below the threshold | SSLQSLETSV [ATP2B4, P23634] | pKd (PCLO, Q9Y6V0): below the threshold; pKd (PDZD2_2, O15018): 4.56; pKd (PDZRN4_1, Q6ZMN7): 4.79; pKd (PICK1, Q9NRD5): 3.76; pKd (SCRIB_3, Q14160): 5.11; pKd (SNTB1, Q13884): 5.59
2 | below the threshold | below the threshold | 3.96 | 5.12 | 6.06 | 5.15 | 5.6 | below the threshold | below the threshold | below the threshold | below the threshold | below the threshold | below the threshold | below the threshold | below the threshold | 3.48 | 4.52 | below the threshold | below the threshold | below the threshold | RLPKIKETTV [FRMPD4, Q14CM0] | pKd (PCLO, Q9Y6V0): below the threshold; pKd (PDZD2_2, O15018): 4.05; pKd (PDZRN4_1, Q6ZMN7): 4.67; pKd (PICK1, Q9NRD5): below the threshold; pKd (SCRIB_3, Q14160): 4.88; pKd (SNTB1, Q13884): 5.17
3 | below the threshold | below the threshold | 3.86 | 3.87 | 4.3 | 4.35 | 4.08 | below the threshold | below the threshold | below the threshold | 3.79 | below the threshold | below the threshold | below the threshold | below the threshold | below the threshold | 3.61 | below the threshold | below the threshold | 4.19 | EVVHTPETSV [SLC16A3, O15427] | pKd (PCLO, Q9Y6V0): below the threshold; pKd (PDZD2_2, O15018): 4.26; pKd (PDZRN4_1, Q6ZMN7): 4.5; pKd (PICK1, Q9NRD5): below the threshold; pKd (SCRIB_3, Q14160): 4.58; pKd (SNTB1, Q13884): 4.76
